Measured values from EP1988168A1 (Max-Planck-Gesellschaft zur Förderung der Wissenschaften …, dated 2008).

B1: Syn7002-RbcL (enzyme, Synechococcus sp. PCC7002, UniProt Q44176 1-470, looked up)
chain: MQTKSAGFNAGVQDYRLTYYTPDYTPKDTDLLACFRMTPQPGVPPEECAAAVAAESSTGTWTTVWTDGLTDLDRYKGRCYNVEPVPGEDNQYFCFVAYPLDLFEEGSVTNVLTSLVGNVFGFKALRALRLEDIRFPVALIKTYQGPPHGITVERDLLNKYGRPLLGCTIKPKLGLSAKNYGRAVYECLRGGLDFTKDDENINSQPFMRWRDRFLFVQEAIEKSQAETNEVKGHYLNVTAGTCEEMLKRAEFAKEIGTPIIMHDFLTGGFTANTTLAKWCRDNGVLLHIHRAMHAVIDRQKNHGIHFRVLAKCLRLSGGDHLHSGTVVGKLEGDRAATLGFVDLMREDYVEEDRSRGVFFTQDYASLPGTMPVASGGIHVWHMPALVEIFGDDSCLQFGGGTLGHPWGNAPGATANRVALEACVQARNEGRSLAREGNDVLREAGKWSPELAAALDLWKEIKFEFDTVDTL
notes: Stood in the assays as monomers, dimers, assembly intermediates or RbcL8 core complex, depending on the experiment; also called wildtype RbcL; RbcL8
B2: Syn7002-RbcX (other, Synechococcus sp. PCC7002, UniProt Q44177 1-134, looked up)
chain: MEFKKVAKETAITLQSYLTYQAVRLISQQLSETNPGQAIWLGEFSKRHPIQESDLYLEAMMLENKELVLRILTVRENLAEGVLEFLPEMVLSQIKQSNGNHRRSLLERLTQVDSSSTDQTEPNPGESDTSEDSE
notes: Assembly chaperone; also called RbcX of Synechococcus sp; PCC7002; non-tagged Syn7002-RbcX
B3: Syn7002-RbcL peptide 2, KEIKFEFDTVD (peptide)
peptide: KEIKFEFDTVD
B5: AnaCA-RbcX (other, Anabaena sp. CA, UniProt Q44212 1-135, looked up)
chain: MNLKQIAKDTAKTLQSYLTYQALRTVLAQLGETNPPLALWLHNFSAGKVQDGEKYIEELFLEKPDLALRIMTVREHIAEEIAEFLPEMVVTGIQQANMEKRRQHLERMTQVSLSHPSPESEQQQFSDPDWDNLAS
notes: also called RbcX from Anabaena sp; CA

Legend:
GroEL = target: T1, GroEL (E. coli, UniProt P0A6F5 2-548); assay: in vitro translation, Native-PAGE, autoradiography
T1 construct: also called E. coli GroEL; chaperonin
T1 sequence (P0A6F5 2-548 limits assumed): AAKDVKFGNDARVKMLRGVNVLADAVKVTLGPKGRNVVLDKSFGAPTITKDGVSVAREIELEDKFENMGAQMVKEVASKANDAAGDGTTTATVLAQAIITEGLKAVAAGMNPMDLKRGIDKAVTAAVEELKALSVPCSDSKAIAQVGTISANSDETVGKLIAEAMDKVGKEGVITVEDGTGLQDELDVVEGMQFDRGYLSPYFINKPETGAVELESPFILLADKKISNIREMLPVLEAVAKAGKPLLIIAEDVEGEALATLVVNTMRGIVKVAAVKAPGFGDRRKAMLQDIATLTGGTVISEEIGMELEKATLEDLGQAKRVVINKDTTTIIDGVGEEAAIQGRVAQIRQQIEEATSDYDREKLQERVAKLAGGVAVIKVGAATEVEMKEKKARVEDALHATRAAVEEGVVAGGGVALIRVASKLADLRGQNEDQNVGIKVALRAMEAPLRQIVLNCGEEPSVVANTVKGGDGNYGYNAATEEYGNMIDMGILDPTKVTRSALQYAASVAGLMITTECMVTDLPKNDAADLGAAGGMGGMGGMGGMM

Syn7002-RbcL [1] = target: B1; assay: displacement of RbcL from anti-FLAG beads carrying the Syn7002-RbcL/Syn7002-RbcXFLAG complex, 15 min at room temperature, immunoblot; competitor Syn7002-RbcXFLAG
Syn7002-RbcX = target: B2; assay: isothermal titration calorimetry, peptide titrated into RbcX dimer at 22°C
AnaCA-RbcX = target: B5; assay: as above
Syn7002-RbcL(1-459) = Syn7002-RbcL(1-459) (Synechococcus sp. PCC7002, UniProt Q44176 1-459); assay: coexpression in E. coli, Native-PAGE and immunoblot
[2] = target: T2, Syn7002-RbcL(F462A, F464A) (Synechococcus sp. PCC7002, UniProt Q44176 1-470); assay: as above
T2 construct: also called RbcL(F462A/F464A) double mutant

[3] = target: B3; assay: comparison of the ITC affinities for the C-terminal RbcL peptide
Syn7002-RbcL [4] = target: B1; assay: co-immunoprecipitation with anti-FLAG antibody from E. coli extract
[5] = target: T2, Syn7002-RbcL(F462A, F464A); assay: pulse-chase in vitro translation, Bis-Tris Native-PAGE, autoradiography

B1
binding result (GroEL): binds

B2
IC50 (Syn7002-RbcL [1]): ~1 µM

B3
Kd (Syn7002-RbcX): ~160 µM | Kd (AnaCA-RbcX): ~5 µM

B4: Syn7002-RbcL peptide 1, EIKFEFD (peptide)
peptide: EIKFEFD
notes: also called peptide EIKFEFD
Kd (Syn7002-RbcX): ~230 µM | Kd (AnaCA-RbcX): ~60 µM

B5
binding result (Syn7002-RbcL(1-459)): no binding | binding result [2]: no binding | fold higher affinity (against Syn7002-RbcX) [3]: 30 fold

B6: Syn7002-RbcXFLAG (other, Synechococcus sp. PCC7002)
chain: MDYKDDDDKAGMEFKKVAKETAITLQSYLTYQAVRLISQQLSETNPGQAIWLGEFSKRHPIQESDLYLEAMMLENKELVLRILTVRENLAEGVLEFLPEMVLSQIKQSNGNHRRSLLERLTQVDSSSTDQTEPNPGESDTSEDSE
notes: Coexpressed with RbcL in E. coli and pulled down with anti-FLAG M2 beads; also called N-terminally FLAG-tagged wildtype RbcX; FLAG-tagged Syn7002-RbcX
binding result (Syn7002-RbcL [4]): binds

B7: AnaCA-RbcXFLAG (other, Anabaena sp. CA)
chain: MDYKDDDDKAGMNLKQIAKDTAKTLQSYLTYQALRTVLAQLGETNPPLALWLHNFSAGKVQDGEKYIEELFLEKPDLALRIMTVREHIAEEIAEFLPEMVVTGIQQANMEKRRQHLERMTQVSLSHPSPESEQQQFSDPDWDNLAS
notes: also called FLAG-tagged AnaCA-RbcX
binding result [5]: no binding (tested: 40 µM RbcX)
